Where two headings read alike, the source gives them in different places.

The source of these data is patent US20230374132A1 (Innovent, published 2023).

Common to all, as to test: BLI, antibody on sensor
A general note: BLI is a label-free optical method that tracks binding on a fibre tip over time.

For assay [1], the target named is T1, cynomolgus monkey CD3 E&D complex protein (Sino Biological Inc., CT032-00323H) (cynomolgus monkey, UniProt Q95LI5 22-117; Q95LI8 22-105).
T1 construct: bought heterodimer
As for the experimental part:
(§1) 100 μl SD buffer, various antibodies, human CD3 E&D complex protein (Sino Biological Inc., CT026H0323H), and cynomolgus monkey CD3 E&D complex protein (Sino Biological Inc., CT032-00323H) were added into 96-well black polystyrene semi-quantitative micro-well plate (Greiner, 675076) respectively. Fortebio Octet Red 96 was used for detection, and the sensor position was selected according to the sample position. The setting parameters of the instrument are as follows: operation steps: Baseline, Loading-1 nm, Baseline, Association and Dissociation; the operation time of each step depends on the speed of sample association and dissociation. The rotational speed is 1000 rpm and the temperature is 30° C. ForteBio Octet analysis software was used to analyze KD value.

Assay [2] deals with T2, human CD3 E&D complex protein (Sino Biological Inc., CT026H0323H) (human, UniProt P07766 23-126; P04234 22-105).
T2 construct: bought heterodimer; also called human CD3 protein (CT026H0323H)
The method, then:
as §1

Assay [3] addresses T3, human CD3E&G complex (Sino Biological Inc., CT041-H0305H) (human, UniProt P07766 23-126; P09693 23-116).
T3 construct: bought heterodimer; also called human CD3E&G antigen

In assay [4] the target is T2, human CD3 E&D complex protein (Sino …). The source holds these as a separate data set.

T1 sequence (Q95LI5 22-117, chain 1 of 2): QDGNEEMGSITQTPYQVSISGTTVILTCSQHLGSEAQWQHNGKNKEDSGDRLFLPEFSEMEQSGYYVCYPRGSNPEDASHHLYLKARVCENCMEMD
T1 sequence (Q95LI8 22-105, chain 2 of 2): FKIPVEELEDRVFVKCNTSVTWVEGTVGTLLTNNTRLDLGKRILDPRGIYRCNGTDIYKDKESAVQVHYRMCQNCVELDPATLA
T2 sequence (P07766 23-126, chain 1 of 2): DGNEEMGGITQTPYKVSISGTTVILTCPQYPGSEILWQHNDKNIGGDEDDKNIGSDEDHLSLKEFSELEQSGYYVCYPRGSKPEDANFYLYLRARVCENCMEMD
T2 sequence (P04234 22-105, chain 2 of 2): as the sequence (Q95LI8 22-105, chain 2 of 2) above, with V5I, K15N, V20I, T32S, N33D, N34I, A64T, N74S, L83V counted along it
T3 sequence (P07766 23-126, chain 1 of 2): as the sequence (P07766 23-126, chain 1 of 2) above
T3 sequence (P09693 23-116, chain 2 of 2): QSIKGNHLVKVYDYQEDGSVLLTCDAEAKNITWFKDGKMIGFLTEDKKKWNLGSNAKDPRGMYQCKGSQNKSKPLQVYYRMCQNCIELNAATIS

B1: hzsp34.8 (antibody, human IgG1, lambda, L234A L235A, V domains shown)
VH: EVQLVESGGGLVQPGGSLKLSCAASGFTFNTYAMNWVRQASGKGLEWVGRIRSKYNNYATYYADSVKDRFTISRDDSKSTLYLQMNSLKTEDTAVYYCARHGNFGNSYVSWFAYWGQGTTVTVSS
VL: QAVVTQEPSLTVSPGGTVTLTCRSSTGAVTTSNYANWFQQKPGQAPRTLIYGTNKRAPWTPARFSGSLLGGKAALTLLGAQPEDEAEYYCALWYSNLWVFGQGTKLTVLG
notes: IgG1 L234A L235A, lambda
As to B1, the binding result in assay [1] and in assay [2] was “no binding” in each case.

B2: hzsp34.112 (antibody, human IgG1, lambda, L234A L235A, V domains shown)
VH: EVQLVESGGGLVQPGGSLKLSCAASGFTFNTYAMNWVRQASGKGLEWVGRIRSKYNNYATYYADSVKDRFTISRDDSKSTLYLQMNSLKTEDTAVYYCARHGNFGQSYVSWFAYWGQGTTVTVSS
VL: QAVVTQEPSLTVSPGGTVTLTCRSSTGAVTTRGYANWVQQKPGQAPRGLIGGTNKRAPGVPARFSGSLLGDKAALTLLGAQPEDEAEYYCALWYSNLWVFGQGTKLTVLG
notes: CDR mutant of hzsp34.24; IgG1 L234A L235A, lambda
On to B2, for which, in assay [3], the Kd came to 6.6 nM, the koff stood at 0.00155 s⁻¹ and the kon was found to be 235000 M⁻¹ s⁻¹. In assay [4], this molecule yielded a dissociation constant Kd of 0.722 nM, a koff of 0.000204 s⁻¹ and a kon of 282000 M⁻¹ s⁻¹.

B3: hzsp34.115 (antibody, human IgG1, lambda, L234A L235A, V domains shown)
VH: EVQLVESGGGLVQPGGSLKLSCAASGFTFNTYAMNWVRQASGKGLEWVGRIRSKYNNYATYYADSVKDRFTISRDDSKSTLYLQMNSLKTEDTAVYYCARHGNFGQSYVSWFAYWGQGTTVTVSS
VL: QAVVTQEPSLTVSPGGTVTLTCRSSTGAVTTSNYANWVQQKPGQAPRGLIGGTNSRAPGVPARFSGSLLGDKAALTLLGAQPEDEAEYYCALWYSNLWVFGQGTKLTVLG
notes: as for B2
In assay [3], B3 came in with a Kd of 7.7 nM, a koff of 0.00184 s⁻¹ and a kon of 238000 M⁻¹ s⁻¹. In assay [4], this molecule displayed a Kd of 1.26 nM, a koff of 0.000331 s⁻¹ and a kon of 264000 M⁻¹ s⁻¹.

B4: hzsp34.108 (antibody, human IgG1, lambda, L234A L235A, V domains shown)
VH: EVQLVESGGGLVQPGGSLKLSCAASGFTFNTYAMNWVRQASGKGLEWVGRIRSKYNNYATYYADSVKDRFTISRDDSKSTLYLQMNSLKTEDTAVYYCARHGNFGQSYVSWFAYWGQGTTVTVSS
VL: QAVVTQEPSLTVSPGGTVTLTCRSSTGAVTTSNYANWVQQKPGQAPRGLIGGTNKRAPGVPARFSGSLLGDKAALTLLGAQPEDEAEYYCALWASNLWVFGQGTKLTVLG
notes: as for B2
In assay [3], B4 registered a Kd of 7.19 nM, a koff of 0.00146 s⁻¹ and a kon of 203000 M⁻¹ s⁻¹. In assay [4], binding was characterised by a dissociation constant (Kd) of 0.965 nM, the koff is 0.0002 s⁻¹ and the kon turned out to be 207000 M⁻¹ s⁻¹.

B5: hzsp34.106 (antibody, human IgG1, lambda, L234A L235A, V domains shown)
VH: EVQLVESGGGLVQPGGSLKLSCAASGFTFNTYAMNWVRQASGKGLEWVGRIRSKYNNYATYYADSVKDRFTISRDDSKSTLYLQMNSLKTEDTAVYYCARHGNFGQSYVSWFAYWGQGTTVTVSS
VL: QAVVTQEPSLTVSPGGTVTLTCRSSTGAVTTSGYANWVQQKPGQAPRGLIGGTNKRAPGVPARFSGSLLGDKAALTLLGAQPEDEAEYYCALWYSNLWVFGQGTKLTVLG
notes: as for B2
In assay [3], B5 showed a Kd of 10.3 nM, a koff of 0.00237 s⁻¹ and a kon of 230000 M⁻¹ s⁻¹. In assay [4], this molecule showed a Kd of 1.54 nM, a koff of 0.000365 s⁻¹ and a kon of 236000 M⁻¹ s⁻¹.

B6: hzsp34.114 (antibody, human IgG1, lambda, L234A L235A, V domains shown)
VH: EVQLVESGGGLVQPGGSLKLSCAASGFTFNTYAMNWVRQASGKGLEWVGRIRSKYNNYATYYADSVKDRFTISRDDSKSTLYLQMNSLKTEDTAVYYCARHGNFGQSYVSWFAYWGQGTTVTVSS
VL: QAVVTQEPSLTVSPGGTVTLTCRSSTGAVTTSNYANWVQQKPGQAPRGLIGGTNKRAPGVPARFSGSLLGDKAALTLLGAQPEDEAEYYCALWYRGLWVFGQGTKLTVLG
notes: as for B2
In assay [3], B6 gave a Kd of 6.69 nM, a koff of 0.00134 s⁻¹ and a kon of 200000 M⁻¹ s⁻¹. In assay [4], this molecule came in with a Kd of 1.08 nM, a koff of 0.000282 s⁻¹ and a kon of 262000 M⁻¹ s⁻¹.

B7: hzsp34.109 (antibody, human IgG1, lambda, L234A L235A, V domains shown)
VH: EVQLVESGGGLVQPGGSLKLSCAASGFTFNTYAMNWVRQASGKGLEWVGRIRSKYNNYATYYADSVKDRFTISRDDSKSTLYLQMNSLKTEDTAVYYCARHGNFGQSYVSWFAYWGQGTTVTVSS
VL: QAVVTQEPSLTVSPGGTVTLTCRSSTGAVTTSNYANWVQQKPGQAPRGLIGGTNKRAPGVPARFSGSLLGDKAALTLLGAQPEDEAEYYCALWYRNLWVFGQGTKLTVLG
notes: as for B2
In the case of B7, in assay [3], the Kd was determined as 9.02 nM, the koff was 0.0021 s⁻¹ and the on-rate (kon) turned out to be 233000 M⁻¹ s⁻¹. For the same molecule, in assay [4], the Kd is 1.15 nM, the koff worked out at 0.000258 s⁻¹ and the kon amounted to 225000 M⁻¹ s⁻¹.

B8: hzsp34.110 (antibody, human IgG1, lambda, L234A L235A, V domains shown)
VH: EVQLVESGGGLVQPGGSLKLSCAASGFTFNTYAMNWVRQASGKGLEWVGRIRSKYNNYATYYADSVKDRFTISRDDSKSTLYLQMNSLKTEDTAVYYCARHGNFGQSYVSWFAYWGQGTTVTVSS
VL: QAVVTQEPSLTVSPGGTVTLTCRSSTGAVTTSNYANWVQQKPGQAPRGLIGGTNKRAPGVPARFSGSLLGDKAALTLLGAQPEDEAEYYCALWYSGLWVFGQGTKLTVLG
notes: as for B2
For B8, in assay [3], the Kd was determined as 8.49 nM, the koff was 0.00188 s⁻¹ and the kon was 222000 M⁻¹ s⁻¹. In assay [4], this molecule displayed a Kd of 0.951 nM, a koff of 0.0002 s⁻¹ and a kon of 210000 M⁻¹ s⁻¹.

B9: hzsp34.9 (antibody, human IgG1, lambda, L234A L235A, V domains shown)
VH: EVQLVESGGGLVQPGGSLKLSCAASGFTFNTYAMNWVRQASGKGLEWVGRIRSKYNNYATYYADSVKDRFTISRDDSKSTLYLQMNSLKTEDTAVYYCARHGNFGQSYVSWFAYWGQGTTVTVSS
VL: QAVVTQEPSLTVSPGGTVTLTCRSSTGAVTTSNYANWFQQKPGQAPRTLIYGTNKRAPWTPARFSGSLLGGKAALTLLGAQPEDEAEYYCALWYSNLWVFGQGTKLTVLG
notes: IgG1 L234A L235A, lambda
Regarding B9, the binding result in assay [1] and in assay [2] was “no binding” each time.

B10: hzsp34.10 (antibody, human IgG1, lambda, L234A L235A, V domains shown)
VH: EVQLVESGGGLVQPGGSLKLSCAASGFTFNTYAMNWVRQASGKGLEWVARIRSKYNNYATYYADSVKDRFTISRDDSKSTLYLQMNSLKTEDTAVYYCARHGNFGQSYVSWFAYWGQGTTVTVSS
VL: QAVVTQEPSLTVSPGGTVTLTCRSSTGAVTTSNYANWFQQKPGQAPRTLIYGTNKRAPWTPARFSGSLLGGKAALTLLGAQPEDEAEYYCALWYSNLWVFGQGTKLTVLG
notes: IgG1 L234A L235A, lambda
In the case of B10, the binding result in assay [1] and in assay [2] was “no binding” each time.

B11: hzsp34.113 (antibody, human IgG1, lambda, L234A L235A, V domains shown)
VH: EVQLVESGGGLVQPGGSLKLSCAASGFTFNTYAMNWVRQASGKGLEWVGRIRSKYNNYATYYADSVKDRFTISRDDSKSTLYLQMNSLKTEDTAVYYCARHGNFGQSYVSWFAYWGQGTTVTVSS
VL: QAVVTQEPSLTVSPGGTVTLTCRSSTGAVTTSNYANWVQQKPGQAPRGLIGGTNKRAPGVPARFSGSLLGDKAALTLLGAQPEDEAEYYCALAASNLWVFGQGTKLTVLG
notes: as for B2
Regarding B11, in assay [3], the Kd was determined as 3.71 nM, the koff stood at 0.000811 s⁻¹ and the kon was determined as 219000 M⁻¹ s⁻¹. In assay [4], this molecule yielded a Kd of 1.02 nM, a koff of 0.0002 s⁻¹ and a kon of 196000 M⁻¹ s⁻¹.

B12: hzsp34.14 (antibody, human IgG1, lambda, L234A L235A, V domains shown)
VH: EVQLVESGGGLVQPGGSLKLSCAASGFTFNTYAMNWVRQASGKGLEWVGRIRSKYNNYATYYADSVKDRFTISRDDSKSTLYLQMNSLKTEDTAVYYCARHGNFGQSYVSWFAYWGQGTTVTVSS
VL: QAVVTQEPSLTVSPGGTVTLTCRSSTGAVTTSNYANWVQQKPGQAPRTLIGGTNKRAPGVPARFSGSLLGGKAALTLLGAQPEDEAEYYCALWYSNLWVFGQGTKLTVLG
notes: IgG1 L234A L235A, lambda
In assay [1], B12 yielded a Kd of 0.195 nM, a koff of 9.49e-05 s⁻¹ and an association rate constant (kon) of 488000 M⁻¹ s⁻¹. In assay [2], the affinity, expressed as Kd, was 2.41 nM; the koff stood at 0.00159 s⁻¹; the kon stood at 661000 M⁻¹ s⁻¹.

B13: hzsp34.107 (antibody, human IgG1, lambda, L234A L235A, V domains shown)
VH: EVQLVESGGGLVQPGGSLKLSCAASGFTFNTYAMNWVRQASGKGLEWVGRIRSKYNNYATYYADSVKDRFTISRDDSKSTLYLQMNSLKTEDTAVYYCARHGNFGQSYVSWFAYWGQGTTVTVSS
VL: QAVVTQEPSLTVSPGGTVTLTCRSSTGAVTTSNYANWVQQKPGQAPRGLIGGTNKRAPGVPARFSGSLLGDKAALTLLGAQPEDEAEYYCALAYSNLWVFGQGTKLTVLG
notes: as for B2
Consider B13, for which, in assay [3], the dissociation constant (Kd) came to 59.8 nM, the koff amounted to 0.00446 s⁻¹ and the kon was determined as 74600 M⁻¹ s⁻¹. In assay [4], this molecule showed a Kd of 8.44 nM, a koff of 0.00141 s⁻¹ and a kon of 167000 M⁻¹ s⁻¹.

B14: hzsp34.111 (antibody, human IgG1, lambda, L234A L235A, V domains shown)
VH: EVQLVESGGGLVQPGGSLKLSCAASGFTFNTYAMNWVRQASGKGLEWVGRIRSKYNNYATYYADSVKDRFTISRDDSKSTLYLQMNSLKTEDTAVYYCARHGNFGQSYVSWFAYWGQGTTVTVSS
VL: QAVVTQEPSLTVSPGGTVTLTCRSSTGAVGGSNYANWVQQKPGQAPRGLIGGTNKRAPGVPARFSGSLLGDKAALTLLGAQPEDEAEYYCALWYSNLWVFGQGTKLTVLG
notes: as for B2
For B14, in assay [3], binding was put at a Kd of 9.5 nM, the koff is 0.00191 s⁻¹ and the kon amounted to 201000 M⁻¹ s⁻¹. Moreover, in assay [4], the Kd is 1.94 nM, the koff was found to be 0.000454 s⁻¹ and the kon is 235000 M⁻¹ s⁻¹.

What is called Kd is a measure of binding affinity in units of concentration. In general, koff refers to the first-order rate constant of dissociation. By kon is commonly meant the second-order rate constant of association.
